According to publication PMC10397247:

Legend:
[1] = target: T1, 4H342-bN; assay: two-hybrid library CCNG1;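 further: natural log of median RNA to DNA barcode read ratio; higher means stronger binding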
T1 chain: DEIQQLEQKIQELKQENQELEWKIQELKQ

[2] = target: T2, 4H2696-bN; assay: two-hybrid library CCNG1;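 further: natural log of median RNA to DNA barcode read ratio; higher means stronger binding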
T2 chain: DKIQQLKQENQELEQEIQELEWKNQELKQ

[3] = target: T3, 4H2944-bN; assay: two-hybrid library CCNG1;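 further: natural log of median RNA to DNA barcode read ratio; higher means stronger binding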
T3 chain: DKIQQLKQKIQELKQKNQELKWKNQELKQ

[4] = target: T4, 4H19-bN; assay: two-hybrid library CCNG1;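 further: natural log of median RNA to DNA barcode read ratio; higher means stronger binding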
T4 chain: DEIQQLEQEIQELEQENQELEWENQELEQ

[5] = target: T5, 4H2883-bN; assay: two-hybrid library CCNG1
T5 chain: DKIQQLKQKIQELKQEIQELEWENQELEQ

[6] = target: T6, 4H2937-bN; assay: two-hybrid library CCNG1
T6 chain: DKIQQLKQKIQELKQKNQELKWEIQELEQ

[7] = target: T7, 4H48-bN; assay: two-hybrid library CCNG1
T7 chain: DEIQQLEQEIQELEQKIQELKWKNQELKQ

[8] = target: T8, 4H491-bN; assay: two-hybrid library CCNG1
T8 chain: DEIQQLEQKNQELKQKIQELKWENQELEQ

[9] = target: T9, Core_IIII-es_KEEK; assay: two-hybrid library CCmax; settings: mean of both orientations
T9 chain: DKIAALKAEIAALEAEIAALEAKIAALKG

[10] = target: T10, Core_NNNN-es_KEEK; assay: two-hybrid library CCmax; settings: mean of both orientations
T10 chain: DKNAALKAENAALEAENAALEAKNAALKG

[11] = target: T11, Core_IIIN-es_KEEK; assay: two-hybrid library CCmax; settings: mean of both orientations
T11 chain: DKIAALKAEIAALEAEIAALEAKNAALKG

DEIQQLEQEIQELEQENQELEWENQELEQ [4H19-bN]
interaction score [1]: -1.48 | interaction score [2]: -0.528 | interaction score [3]: 2.27 | interaction score [4]: -0.738 | interaction score [5]: -2.16 | interaction score [6]: -0.594 | interaction score [7]: -0.58 | interaction score [8]: -0.636

DEIAALEAKIAALKAKIAALKAEIAALEG [Core_IIII-es_EKKE]
interaction score [9]: 2.36

DENAALEAKNAALKAKNAALKAENAALEG [Core_NNNN-es_EKKE]
interaction score [10]: -0.488

DEIAALEAKIAALKAKIAALKAENAALEG [Core_IIIN-es_EKKE]
interaction score [11]: 1.73
